A short description of the data set: protein stability index of a GFP-peptide fusion (GPS, HEK-293T) (PSI 1-6); higher = more stable.
Where [1] appears, read: treatment: DMSO, c terminus: a fixed tail appended.
The mark [2] stands for this setting: treatment: MLN4924 1 uM, 8 h, c terminus: a fixed tail appended.
Setting [3] is: treatment: DMSO, c terminus: native.
Setting [4] is: treatment: MLN4924 1 uM, 8 h, c terminus: native.

Data on 72 sequences can be found in the supplement of paper PMC10567573.

± gives the standard deviation.
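Note: 24-mer peptide tiles fused after GFP, lentivirally expressed, FACS-sorted into six equal bins by GFP/DsRed ratio, decoded by Illumina sequencing, PSI is the read-weighted mean bin number.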

In the case of NAGLVWFFPWREAKPGSTEKGLPL [MFSD9], the protein stability index turned out to be 2.23 ± 0.18 under setting [1] and 2.16 ± 0.29 under setting [2].

With NASFIDGYRQQKAYIATQGPLAET [PTPRD], the protein stability index was 3.46 ± 0.43 under setting [1] and 3.53 ± 0.49 under setting [2].

Consider NCFEITLELSCDKFPPEEELQREW [CPN1], for which the protein stability index runs as follows: under setting [1], 2.77 ± 0.24; under setting [2], 3.1 ± 0.22.

NDLLEILEIDDLDAIVPAVKKLKV [CEP70]: the protein stability index was found to be 2.4 ± 0.46 under setting [1] and 2.87 ± 0.27 under setting [2].

Take NGCEVKNRKSILSRHLNSQVKKTT [PHTF1]: the protein stability index runs as follows: under setting [1], 3.95 ± 0.24; under setting [2], 4 ± 0.37.

Turning to NGDPESVASLHWDGGALLGVLQYR [ADAMTS4], the protein stability index is 2.29 ± 0.74 under setting [1] and 2.54 ± 0.35 under setting [2].

Consider NGSDNLPSSAGSGDKPLSDPAPF [TPD52L2], for which the protein stability index was determined as 5.44 ± 0.21 under setting [3] and 5.51 ± 0.18 under setting [4].

Regarding NGSVGVKNSMENGRPPDPADWAVM [SAMD13], the protein stability index under setting [1] was 3.99 ± 0.26 and the protein stability index under setting [2] came out at 4.06 ± 0.24.

In the case of NGTEDLPYAMKPIDYYTETKILQE [NSDHL], the protein stability index by setting is: under setting [1], 4.28 ± 0.17; under setting [2], 4.22 ± 0.051.

As to NHGQVVSYLLKSGADKEILTTKGE [ANKRD40], the protein stability index under setting [1] was 4.08 ± 0.28 and the protein stability index under setting [2] worked out at 3.9 ± 0.26.

With NICHVWHMNVEALPEWISCLIQKA [RNF180], the protein stability index by setting is: under setting [1], 2.01 ± 0.24; under setting [2], 2.57 ± 0.38.

Consider NIKPRRYLTVVFEHDAWFIFFMAA [SLC29A1], for which the protein stability index is 3.1 ± 0.48 under setting [1] and 2.48 ± 0.61 under setting [2].

Consider NLLGEGQHKCDECGKSFTQSSGLI [ZSCAN9], for which the protein stability index runs as follows: under setting [1], 3.66 ± 0.3; under setting [2], 3.68 ± 0.28.

Take NLNAATDDPENKKTSSSSKAGFTA [CDC14A]: the protein stability index under setting [1] turned out to be 5.17 ± 0.16 and the protein stability index under setting [2] amounted to 5.02 ± 0.062.

On to NLSEFQHVISRSPDFASSFKIVL [CIB1], for which the protein stability index was found to be 2.29 ± 0.45 under setting [3] and 2.32 ± 0.44 under setting [4].

On to NMQQPMNVMTQSFGAVNLSSPSNM [CLINT1], for which the protein stability index worked out at 3.44 ± 0.17 under setting [1] and 3.66 ± 0.17 under setting [2].

On to NMSSSRGPLPVKRGPPPRSGGPPP [RBMX], for which the protein stability index by setting is: under setting [1], 4.41 ± 0.22; under setting [2], 4.45 ± 0.45.

Regarding NNTLVALPIVAIENILSFMSYDEI [FBXO28], the protein stability index runs as follows: under setting [1], 3.22 ± 0.33; under setting [2], 3 ± 0.61.

Turning to NQSRCEMKTFVSPEAISPDLVKKI [TRIM15], the protein stability index under setting [1] was 3.98 ± 0.3 and the protein stability index under setting [2] is 4.14 ± 0.37.

As for NSGTDQEQIHLLLSSQCFSNISRP [M1AP], the protein stability index is, setting by setting: under setting [1], 2.98 ± 0.21; under setting [2], 3.18 ± 0.27.

NTVLRFLDLKGNNLRAAGAEALGK [LRRC45]: the protein stability index runs as follows: under setting [1], 3.31 ± 0.27; under setting [2], 3.28 ± 0.25.

With NVYHSYDLPWFRTLSWYFLLCVNY [CDS2], the protein stability index by setting is: under setting [1], 2.93 ± 0.23; under setting [2], 2.98 ± 0.28.

As to NYVLEEVDEAAAESPSFLSLRKGA [NCK2], the protein stability index reads like this: under setting [1], 4.75 ± 0.2; under setting [2], 4.83 ± 0.13.

In the case of PADALQYLLQFARKPVEAESVEGV [INTS4], the protein stability index runs as follows: under setting [1], 2.9 ± 0.29; under setting [2], 2.98 ± 0.41.

On to PAFDALGQLTGGYKPNPQIYVKLI [OAS1], for which the protein stability index reads like this: under setting [1], 2.34 ± 0.14; under setting [2], 2.15 ± 0.26.

As to PAFLKWLSLASLLVYVAAFSIGLG [SLC2A12], the protein stability index was 3.28 ± 0.15 under setting [1] and 3.48 ± 0.79 under setting [2].

As for PALKECIQGADTIRCVYILDPWFA [CRY1], the protein stability index reads like this: under setting [1], 2.95 ± 0.55; under setting [2], 2.73 ± 0.74.

For the sequence PAMVRISKPKTFQAYLDDCHRRYS [YPEL3], the protein stability index runs as follows: under setting [1], 2.96 ± 0.11; under setting [2], 2.92 ± 0.17.

Consider PAPASPAISVVGVSAGGHTLSRPP [TFE3], for which the protein stability index by setting is: under setting [1], 4.37 ± 0.28; under setting [2], 4.38 ± 0.25.

For PDGLMYQKFRNQFLSFSMYQSFVQ [TMEM120A], the protein stability index amounted to 2.68 ± 0.59 under setting [1] and 2.33 ± 0.76 under setting [2].

With PDLPFQIKPSENHYSLLTSQPLDR [PCDHGC5], the protein stability index reads like this: under setting [1], 3.97 ± 0.22; under setting [2], 4.13 ± 0.14.

With PEITTEDIKAAFAPFGRISDARVV [TIA1], the protein stability index runs as follows: under setting [1], 3.34 ± 0.21; under setting [2], 3.3 ± 0.13.

On to PEKHQVPEKLIWGDQDPLSKIPFK [WDR88], for which the protein stability index reads like this: under setting [1], 3.72 ± 0.22; under setting [2], 4.26 ± 0.38.

For the sequence PEPLFLGEEDFSLSATIGSILREL [SERTAD3], the protein stability index reads like this: under setting [1], 2.6 ± 0.12; under setting [2], 2.57 ± 0.31.

On to PEQLVLTLLEAEPPHVLISRPSAP [ESR2], for which the protein stability index is, setting by setting: under setting [1], 2.89 ± 0.31; under setting [2], 3.1 ± 0.48.

PESQMCRKFSRECEDQKQIKKPES [NEUROD6]: the protein stability index is, setting by setting: under setting [1], 5.09 ± 0.38; under setting [2], 5.31 ± 0.22.

On to PETQARLEALLEAAGIGKLSTADG [ANKRD17], for which the protein stability index by setting is: under setting [1], 2.95 ± 0.32; under setting [2], 3.18 ± 0.42.

On to PFKRFLRKKSKPKKCVKKFVEYCD [SMOC2], for which the protein stability index amounted to 2.45 ± 0.091 under setting [1] and 2.59 ± 0.26 under setting [2].

Consider PGLLEEDNQWMTQINRLQKLIDRL [NECAB1], for which the protein stability index by setting is: under setting [1], 2.51 ± 0.23; under setting [2], 2.88 ± 0.2.

Turning to PGPERLFDSHRLPGDCFLLLVLLL [AUP1], the protein stability index stood at 2.46 ± 0.54 under setting [1] and 2.14 ± 0.59 under setting [2].

Regarding PITAHAEVEVVEEAKCCCFFKRKR [CSNK1G1], the protein stability index stood at 2.96 ± 0.73 under setting [1] and 3.23 ± 1.2 under setting [2].

Take PLAEQTPLTLQSQPKEPQLTCDSA [ZSCAN9]: the protein stability index under setting [1] was 5.25 ± 0.28 and the protein stability index under setting [2] came out at 5.35 ± 0.36.

In turn, PLLCPSYQSYFKTIEELQQKILCA [KRT34] registered a protein stability index under setting [1] of 4 ± 0.19.

Take PLLLLCNIKPRRYLTVVFEHDAWF [SLC29A1]: the protein stability index under setting [1] came to 3.09 ± 0.71 and the protein stability index under setting [2] amounted to 3.06 ± 0.52.

Turning to PLLMNRQRVPKVLVENAKNFPQCV [EFHC1], the protein stability index is, setting by setting: under setting [1], 2.46 ± 0.44; under setting [2], 2.47 ± 0.072.

Regarding PLVGQDEFFLEQTKKKGVKRPARL [NOP53], the protein stability index under setting [1] was 4.18 ± 0.41 and the protein stability index under setting [2] is 4.2 ± 0.19.

In the case of PMQESKAEGNNQAPGEEEEEEEEA [CHGA], the protein stability index was 5.49 ± 0.39 under setting [1] and 5.74 ± 0.15 under setting [2].

On to PNRAGAPGESLECPAELRPQVPQP [TRAF3IP2], for which the protein stability index stood at 4.97 ± 0.16 under setting [1] and 5.07 ± 0.26 under setting [2].

As to PPAEEAEQPGALAREFLAAMEPEP [FKBP8], the protein stability index is, setting by setting: under setting [1], 5.49 ± 0.45; under setting [2], 5.57 ± 0.072.

PPAPAPLPPPSAPSLQPSRKLSPT [SCAMP3]: the protein stability index is, setting by setting: under setting [1], 5.34 ± 0.25; under setting [2], 5.32 ± 0.12.

Turning to PPGLPAETIKDLMRQFLRGLDFLH [CDK4], the protein stability index runs as follows: under setting [1], 2.21 ± 0.075; under setting [2], 2.57 ± 0.7.

Turning to PPGYSAWIKEEAAERYLYFPNWAM [SLC6A17], the protein stability index by setting is: under setting [1], 2.33 ± 0.28; under setting [2], 2.11 ± 0.4.

As to PPPPYEAVVSQMDQEQGSSFQMSE [FAM189A2], the protein stability index is 5.54 ± 0.27 under setting [1] and 5.43 ± 0.096 under setting [2].

On to PPTLQEAGLSHTEVLFVQDLTDE [FAF2], for which the protein stability index was 4.88 ± 0.25 under setting [3] and 4.92 ± 0.15 under setting [4].

As for PQEEIATKKLRLTKPSKSAALHID [INTS4], the protein stability index turned out to be 4.36 ± 0.047 under setting [1] and 4.46 ± 0.1 under setting [2].

For PQKLLGCSPALKRSHSDSLDHDIF [CDC25A], the protein stability index reads like this: under setting [1], 3.12 ± 0.28; under setting [2], 3.24 ± 0.33.

On to PQNGSETGWARKGLGNTWPGASGS [ATP23], for which the protein stability index worked out at 4.32 ± 0.24 under setting [1] and 4.33 ± 0.34 under setting [2].

Sequence PQQHFLEEKQASLWVQGDIFRSKL [CDC14A] showed a protein stability index under setting [1] of 3.12 ± 0.18 and a protein stability index under setting [2] of 3.14 ± 0.28.

As to PQTLIMAYDYAKEVNSAEELEGLI [FEM1C], the protein stability index is, setting by setting: under setting [1], 3.75 ± 0.32; under setting [2], 3.56 ± 0.27.

Consider PRAAGTDGSDFQHRERVAMHYQMS [JAGN1], for which the protein stability index came out at 3.96 ± 0.25 under setting [1] and 4.06 ± 0.18 under setting [2].

Consider PRLCYLVKEGGSYGFSLKTVQGKK [PDZK1], for which the protein stability index under setting [1] stood at 3.02 ± 0.12.

For the sequence PRRLGRLKYQAPDIDVQLSSELTD [NOP53], the protein stability index runs as follows: under setting [1], 4.11 ± 0.48; under setting [2], 4.14 ± 0.34.

Turning to PSAAGAPASAPGEPRQRRLLLLDL [ANKRD9], the protein stability index under setting [1] was 2.86 ± 0.29 and the protein stability index under setting [2] was determined as 3.11 ± 0.4.

Regarding PSKVEVTEKTTTVLSESSGPSNTS [C2CD2L], the protein stability index reads like this: under setting [1], 5.43 ± 0.095; under setting [2], 5.44 ± 0.23.

Regarding PSPGVLCGSARPKPYDPPGEKMVA [ATF4], the protein stability index by setting is: under setting [1], 4.37 ± 0.28; under setting [2], 4.6 ± 0.23.

As to PSRGGNQLPRPPIVGGNKGRSGPL [WAS], the protein stability index is, setting by setting: under setting [1], 4.6 ± 0.07; under setting [2], 4.73 ± 0.22.

PSVCSENIHPQVLLPDQARGEVPW [ZNF263]: the protein stability index reads like this: under setting [1], 4.19 ± 0.22; under setting [2], 4.34 ± 0.37.

As for PTMAPAGQPAPVSMVPPSPAMAAS [SNAP91], the protein stability index under setting [1] worked out at 4.75 ± 0.22 and the protein stability index under setting [2] is 4.89 ± 0.28.

PTVTTSWQSESLPVSLSASQSWHT [BCL2L13]: the protein stability index runs as follows: under setting [1], 3.25 ± 0.31; under setting [2], 3.12 ± 0.22.

PWLWSEQQVCQWLLWATNEFSLVN [ETS2]: the protein stability index is, setting by setting: under setting [1], 2.76 ± 0.47; under setting [2], 2.42 ± 0.46.

For PWSPCSARFITDFLDNGYGHCLLD [ADAMTS4], the protein stability index runs as follows: under setting [1], 2.05 ± 0.21; under setting [2], 2.21 ± 0.41.

For PYFSPSASFHHKLHHKRLAKECML [CBY2], the protein stability index worked out at 2.56 ± 0.11 under setting [1] and 2.5 ± 0.32 under setting [2].
